Numbering of substitutions follows the chain as printed. Each block holds one binder with its values, some of them ahead of it.
Legend:
[1] = target: cynomolgus CD33 (cynomolgus); assay: flow cytometry KDs on CHO cells, cyno CD33 / human CD33
human CD3 = human CD3 (human, UniProt P07766 23-207); assay: cell-based or functional assay
Sequence of human CD3 (P07766 23-207): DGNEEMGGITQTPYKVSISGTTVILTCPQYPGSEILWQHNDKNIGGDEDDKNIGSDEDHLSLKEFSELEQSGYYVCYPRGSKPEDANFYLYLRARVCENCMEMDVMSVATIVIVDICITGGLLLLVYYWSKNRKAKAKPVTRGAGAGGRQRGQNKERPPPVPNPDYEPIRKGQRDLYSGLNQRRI

KD ratio CynoCD33/huCD33 [1]: 1.9
B1: CD33/CD3 tandem diabody 17 (bispecific antibody)
chain: DIQMTQSPSSLSASVGDRVTITCRSSTGAVTTSNYANWVQQKPGKAPKALIGGTNKRAPGVPSRFSGSLIGDKATLTISSLQPEDFATYYCALWYSNLWVFGQGTKVEIKGGSGGSQVQLVQSGAEVKKPGESLKISCKGSGYSFTSYWIGWVRQMPGKGLEWMGIIYPGDSDTRYSPSFQGQVTISADKSISTAYLQWSSLKASDTAMYYCARHKRGSDAFDIWGQGTTVTVSSGGSGQSVLTQPPSVSGAPGQRVTISCTGSSSNIGAGYDVHWYQQLPGTAPKLLIYGNSNRPSGVPDRFSGSKSGTSASLAITGLQAEDEADYYCQSYDSSLSDVVFGGGTKLTVLGGSGGSEVQLVESGGGLVQPGGSLRLSCAASGFTFSTYAMNWVRQAPGKGLEWVGRIRSKYNNYATYYADSVKDRFTISRDDSKNSLYLQMNSLKTEDTAVYYCARHGNFGNSYVSYFAYWGQGTLVTVSSAAAGSHHHHHH

KD ratio CynoCD33/huCD33 [1]: 37.3
B2: CD33/CD3 tandem diabody 19 (bispecific antibody)
chain: DIQMTQSPSSLSASVGDRVTITCRSSTGAVTTSNYANWVQQKPGKAPKALIGGTNKRAPGVPSRFSGSLIGDKATLTISSLQPEDFATYYCALWYSNLWVFGQGTKVEIKGGSGGSQVQLVQSGAEVKKPGASVKVSCKASGYTFTSYYMHWVRQAPGQGLEWMGIINPSGGSTSYAQKFQGRVTMTRDTSTSTVYMELSSLRSEDTAVYYCARDVVPAAIDYYGMDVWGQGTTVTVSSGGSGQSVLTQPPSASGTPGQRVTISCSGSSSNIGSNTVNWYQQLPGTAPKLLIYSDNQRPSGVPDRFSGSKSGSSASLAISGLQSDDEADYYCATWDDSLNGAVFGGGTKLTVLGGSGGSEVQLVESGGGLVQPGGSLRLSCAASGFTFSTYAMNWVRQAPGKGLEWVGRIRSKYNNYATYYADSVKDRFTISRDDSKNSLYLQMNSLKTEDTAVYYCARHGNFGNSYVSYFAYWGQGTLVTVSSAAAGSHHHHHH

KD ratio CynoCD33/huCD33 [1]: 1.1
B10: CD33/CD3 tandem diabody 15 (bispecific antibody)
chain: DIQMTQSPSSLSASVGDRVTITCRSSTGAVTTSNYANWVQQKPGKAPKALIGGTNKRAPGVPSRFSGSLIGDKATLTISSLQPEDFATYYCALWYSNLWVFGQGTKVEIKGGSGGSQVQLVQSGAEVKKPGASVKVSCKASGYTFTSYDINWVRQAPGQGLEWMGWMNPNSGNTGFAQKFQGRVTMTRDTSTSTVYMELSSLRSEDTAVYYCARDRANTDYSFGMDVWGQGTLVTVSSGGSGQSVLTQPPSASGTPGQRVTISCSGSRSNIGSNTVNWYQQLPGTAPKLLIYGNNQRPSGVPDRFSGSKSGTSASLAISGLQSEDEADYYCATWDDSLIGWVFGGGTKLTVLGGSGGSEVQLVESGGGLVQPGGSLRLSCAASGFTFSTYAMNWVRQAPGKGLEWVGRIRSKYNNYATYYADSVKDRFTISRDDSKNSLYLQMNSLKTEDTAVYYCARHGNFGNSYVSYFAYWGQGTLVTVSSAAAGSHHHHHH

KD ratio CynoCD33/huCD33 [1]: 1.4
B11: CD33/CD3 tandem diabody 16 (bispecific antibody)
chain: B10 chain with F223L

KD ratio CynoCD33/huCD33 [1]: 33.8
T cell Proliferation in PBMC EC50 (human CD3): 38 pM
B14: CD33/CD3 tandem diabody 20 (bispecific antibody)
chain: DIQMTQSPSSLSASVGDRVTITCRSSTGAVTTSNYANWVQQKPGKAPKGLIGGTNKRAPGVPSRFSGSLIGTDFTLTISSLQPEDFATYYCALWYSNLWVFGQGTKVEIKGGSGGSQVQLVQSGAEVKKPGASVKVSCKASGYTFTSYYMHWVRQAPGQGLEWMGIINPSGGSTSYAQKFQGRVTMTRDTSTSTVYMELSSLRSEDTAVYYCARDVVPAAIDYYGMDVWGQGTTVTVSSGGSGQSVLTQPPSASGTPGQRVTISCSGSSSNIGSNTVNWYQQLPGTAPKLLIYSDNQRPSGVPDRFSGSKSGSSASLAISGLQSDDEADYYCATWDDSLNGAVFGGGTKLTVLGGSGGSEVQLVESGGGLVQPGGSLRLSCAASGFTFSTYAMNWVRQAPGKGLEWVGRIRSKYNNYATYYADSVKDRFTISRDDSKNSLYLQMNSLKTEDTAVYYCARHGNFGNSYVSWFAYWGQGTLVTVSS

KD ratio CynoCD33/huCD33 [1]: 3.1
B15: CD33/CD3 tandem diabody 18 (bispecific antibody)
chain: EVQLVESGGGLVQPGGSLRLSCAASGFTFSTYAMNWVRQAPGKGLEWVGRIRSKYNNYATYYADSVKDRFTISRDDSKNSLYLQMNSLKTEDTAVYYCARHGNFGNSYVSYFAYWGQGTLVTVSSGGSGGSQSVLTQPPSVSGAPGQRVTISCTGSSSNIGAGYDVHWYQQLPGTAPKLLIYGNSNRPSGVPDRFSGSKSGTSASLAITGLQAEDEADYYCQSYDSSLSDVVFGGGTKLTVLGGSGQVQLVQSGAEVKKPGESLKISCKGSGYSFTSYWIGWVRQMPGKGLEWMGIIYPGDSDTRYSPSFQGQVTISADKSISTAYLQWSSLKASDTAMYYCARHKRGSDAFDIWGQGTTVTVSSGGSGGSDIQMTQSPSSLSASVGDRVTITCRSSTGAVTTSNYANWVQQKPGKAPKALIGGTNKRAPGVPSRFSGSLIGDKATLTISSLQPEDFATYYCALWYSNLWVFGQGTKVEIKAAAGSHHHHHH

More lines, now with the values behind:

B3: CD33/CD3 tandem diabody 13 (bispecific antibody)
chain: DIQMTQSPSSLSASVGDRVTITCRSSTGAVTTSNYANWVQQKPGKAPKGLIGGTNKRAPGVPSRFSGSLIGTDFTLTISSLQPEDFATYYCALWYSNLWVFGQGTKVEIKGGSGGSQVQLVQSGAEVKKPGASVKVSCKASGYTFTSYDINWVRQAPGQGLEWMGWMNPNSGNTGFAQKFQGRVTMTRDTSTSTVYMELSSLRSEDTAVYYCARDRAVTDYYYGMDVWGQGTLVTVSSGGSGQSVLTQPPSASGTPGQRVTISCSGSRSNIGSNTVNWYQQLPGTAPKLLIYGNNQRPSGVPDRFSGSKSGTSASLAISGLQSEDEADYYCATWDDSLIGWVFGGGTKLTVLGGSGGSEVQLVESGGGLVQPGGSLRLSCAASGFTFSTYAMNWVRQAPGKGLEWVGRIRSKYNNYATYYADSVKDRFTISRDDSKNSLYLQMNSLKTEDTAVYYCARHGNFGNSYVSWFAYWGQGTLVTVSS
KD ratio CynoCD33/huCD33 [1]: 1.6

B4: CD33/CD3 tandem diabody 08 (bispecific antibody)
chain: QSVLTQPPSASGTPGQRVTISCSGSRSNIGSNTVNWYQQLPGTAPKLLIYGNNQRPSGVPDRFSGSKSGSSASLAISGLQSEDEADYYCATWDDSLIGWVFGGGTKLTVLGGSGGSEVQLVESGGGLVQPGGSLRLSCAASGFTFSTYAMNWVRQAPGKGLEWVGRIRSKYNNYATYYADSVKDRFTISRDDSKNSLYLQMNSLKTEDTAVYYCARHGNFGNSYVSYFAYWGQGTLVTVSSGGSGGSDIQMTQSPSSLSASVGDRVTITCRSSTGAVTTSNYANWVQQKPGKAPKALIGGTNKRAPGVPSRFSGSLIGDKATLTISSLQPEDFATYYCALWYSNLWVFGQGTKVEIKGGSGGSQVQLVQSGAEVKKPGASVKVSCKASGYTFTSYDINWVRQAPGQGLEWMGWMNPNSGNTGFAQKFQGRVTMTRDTSTSTVYMELSSLRSEDTAVYYCARDRANTDFSYGMDVWGQGTLVTVSSAAAGSHHHHHH
KD ratio CynoCD33/huCD33 [1]: 0.6

B5: CD33/CD3 tandem diabody 07 (bispecific antibody)
chain: DIQMTQSPSSLSASVGDRVTITCRSSTGAVTTSNYANWVQQKPGKAPKALIGGTNKRAPGVPSRFSGSLIGDKATLTISSLQPEDFATYYCALWYSNLWVFGQGTKVEIKGGSGGSQVQLQESGGGVVQPGRSLRLSCAASGFSFSNYGIHWVRQAPGKGLEWVALISYDGNKKFYADSVKGRFAISRDTSKNTVDLQMTSLRPEDTAVYYCAKDRLESAAFDYWGQGTLVTVSSGGSGGSSYELTQPPSVSVAPGQTAMITCGGNNIGSTTVHWYQQKPGQAPVLVVYDDNERPSGIPERFSGSNSGSTATLTINRVEAGDEADYYCQVWDSGSDHVVFGGGTKLTVLGGSGGSEVQLVESGGGLVQPGGSLRLSCAASGFTFSTYAMNWVRQAPGKGLEWVGRIRSKYNNYATYYADSVKDRFTISRDDSKNSLYLQMNSLKTEDTAVYYCARHGNFGNSYVSYFAYWGQGTLVTVSSAAAGSHHHHHH
KD ratio CynoCD33/huCD33 [1]: 45.8

B6: CD33/CD3 tandem diabody 09 (bispecific antibody)
chain: B10 chain with A49G, Y221F, F223Y, T312S, Y469W
KD ratio CynoCD33/huCD33 [1]: 1

B7: CD33/CD3 tandem diabody 12 (bispecific antibody)
chain: B10 chain with N218V, S222Y, F223Y
KD ratio CynoCD33/huCD33 [1]: 1.7

B8: CD33/CD3 tandem diabody 10 (bispecific antibody)
chain: B10 chain with A49G, Y469W
KD ratio CynoCD33/huCD33 [1]: 0.8

B9: CD33/CD3 tandem diabody 01 (bispecific antibody)
chain: DIQMTQSPSSLSASVGDRVTITCRSSTGAVTTSNYANWVQQKPGKAPKGLIGGTNKRAPGVPARFSGSGSGTDFTLTISSLQPEDFATYYCALWYSNLWVFGQGTKVEIKGGSGGSQVQLVQSGAEVKKPGASVKVSCKASGYTFTSYDINWVRQAPGQGLEWMGWMNPNSGNTGFAQKFQGRVTMTRDTSTSTVYMELSSLRSEDTAVYYCARDRANTDFSYGMDVWGQGTLVTVSSGGSGQSVLTQPPSASGTPGQRVTISCSGSRSNIGSNTVNWYQQLPGTAPKLLIYGNNQRPSGVPDRFSGSKSGSSASLAISGLQSEDEADYYCATWDDSLIGWVFGGGTKLTVLGGSGGSEVQLVESGGGLVQPGGSLRLSCAASGFTFSTYAMNWVRQAPGKGLEWVGRIRSKYNNYATYYADSVKDRFTISRDDSKNSLYLQMNSLKTEDTAVYYCARHGNFGNSYVSWFAYWGQGTLVTVSSAAAGSHHHHHH
KD ratio CynoCD33/huCD33 [1]: 0.7

B12: CD33/CD3 tandem diabody 11 (bispecific antibody)
chain: B10 chain with A49G, F223L, Y469W
KD ratio CynoCD33/huCD33 [1]: 1.2

B13: CD33/CD3 tandem diabody 14 (bispecific antibody)
chain: B10 chain with Y221F, F223Y, T312S
KD ratio CynoCD33/huCD33 [1]: 1
